Reference: patent US20060094649A1

molecular target: HLA-A*0301 (human); experiment: competitive inhibition of 125I-A3con binding to purified HLA; details: remark: other sources report otherwise

Row | IC50 [nM] | Binder
1 | 10 | GTRVRAMAIYK [p53.154 …]
2 | 31 | RVCACPGR [p53.273 RVCACPGR]

molecular target: HLA-A*1101 (human); experiment: as above; details: remark: other sources report otherwise

Row | IC50 [nM] | Binder
3 | 14 | KTYQGSYGFK [p53.101.K10 …]
4 | 3 | YVFPVIFSK [MAGE3.138.V2 …]
5 | 3 | SSFSTTINK [MAGE2.69.K9 …]

molecular target: HLA-A*3101 (human); experiment: as above; details: remark: other sources report otherwise

Row | IC50 [nM] | Binder
6 | 1500 | CTYSPALNK [p53.124 …]

molecular target: HLA-B*3501 (human); experiment: inhibition of 125I-B35con2 probe, purified HLA; details: remark: other sources report otherwise

Row | IC50 [nM] | Binder
7 | 32.7 | APAPAPSW [p53.84 APAPAPSW]

molecular target: HLA-A*6801 (human); experiment: competition vs 125I probe, purified HLA; details: remark: other sources report otherwise

Row | IC50 [nM] | Binder
8 | 400 | LVHFLLLK [MAGE2/3.116 (8-mer)]
9 | 40 | KVYQGSYGFR [p53.101.V2]
10 | 727 | KMFCQLAK [p53.132]
11 | 38 | KVYQGSYGFK [p53.101.V2K10]
12 | 500 | SVSRHKKLMFR [p53.376.V2R11]
13 | 8000 | LVHFLLLKY [MAGE2/3.116 (9-mer)]

molecular target: HLA-A*3301 (human); experiment: competition vs 125I probe, purified HLA; details: remark: other sources report otherwise

Row | IC50 [nM] | Binder
14 | 9 | SMLEVFEGR [MAGE2.226]

molecular target: HLA-A*0301 (human); experiment: competition vs 125I probe, purified HLA; details: remark: other sources report otherwise

Row | IC50 [nM] | Binder
15 | 10 | GTRVRAMAIYK [p53.154]
16 | 38 | KVYQGSYGFR [p53.101.V2]
17 | 36 | YVFPVIFSR [MAGE3.138.V2R9]
18 | 5000 | YFFPVIFSK [MAGE3.138]
19 | 29 | KMFCQLAK [p53.132]
20 | 1000 | FSTTINYTLWR [MAGE2.71]
21 | 500 | LLGDNQIMPK [MAGE3.189]
22 | 33 | KVYQGSYGFK [p53.101.V2K10]
23 | 33 | SVSRHKKLMFK [p53.375.V2]
24 | 58 | GVRVRAMAIYK [p53.154.V2]
25 | 550 | SSCMGGMNR [p53.240 (9-mer)]
26 | 31 | RVCACPGR [p53.273 (8-mer)]

molecular target: HLA-A*1101 (human); experiment: competition vs 125I probe, purified HLA; details: remark: other sources report otherwise

Row | IC50 [nM] | Binder
27 | 70 | SSCMGGMNRR [p53.240 (10-mer)]
28 | 40 | LVHFLLLK [MAGE2/3.116 (8-mer)]
29 | 62 | KVYQGSYGFR [p53.101.V2]
30 | 3 | SSFSTTINK [MAGE2.69.K9]
31 | 17 | KMFCQLAK [p53.132]
32 | 3 | YVFPVIFSK [MAGE3.138.V2]
33 | 9.2 | KVYQGSYGFK [p53.101.V2K10]
34 | 14 | KTYQGSYGFK [p53.101.K10]
35 | 4.3 | SSCMGGMNR [p53.240 (9-mer)]

molecular target: HLA-A*3101 (human); experiment: competition vs 125I probe, purified HLA; details: remark: other sources report otherwise

Row | IC50 [nM] | Binder
36 | 5 | RVRAMAIYK [p53.156]
37 | 72 | KVYQGSYGFR [p53.101.V2]
38 | 6 | YVFPVIFSR [MAGE3.138.V2R9]
39 | 9 | RVRAMAIYR [p53.156.R9]
40 | 9000 | TVINYTLWK [MAGE2.73.V2K9]
41 | 900 | ALIETSYVK [MAGE2.277]
42 | 1500 | CTYSPALNK [p53.124]

molecular target: HLA-B*5301 (human); experiment: competition vs 125I probe, purified HLA; details: remark: other sources report otherwise

Row | IC50 [nM] | Binder
43 | 51.7 | KPYDGIPI [Her2/neu.921I8]

molecular target: HLA-B*5401 (human); experiment: competition vs 125I probe, purified HLA; details: remark: other sources report otherwise

Row | IC50 [nM] | Binder
44 | 3.2 | IPWQRLLLTA [CEA.13]

molecular target: HLA-B*4002 (human); experiment: competition with radiolabeled probe peptide, purified HLA; details: remark: other sources report otherwise

Row | IC50 [nM] | Binder
45 | 9.5 | GERLPQPPICTI […]

molecular target: HLA-B*0702 (human); experiment: inhibition of 125I-[..] probe, purified HLA; details: remark: other sources report otherwise

Row | IC50 [nM] | Binder
46 | 60 | YPLWSQSI [MAGE3.77.I8 YPLWSQSI]
